Reference: publication PMC5303882, “Structure of the homodimeric androgen receptor ligand-binding domain” (Nature Communications, 2017)

Biological target: T1, Recombinant human androgen receptor ligand-binding domain (AR-LBD, residues 662-919), DHT-bound (human, UniProt P10275 662-919)
T1 construct: also called AR/NR3C4 LBD; liganded AR-LBD; source: recombinant, expressed as a fusion protein with thioredoxin, purified to homogeneity
Assay: SPR; BIAcore T200, 25 °C; DHT-bound AR-LBD amine-coupled to a CM5 chip at about 6,800 RU, UBA3 peptide as analyte; 50 mM HEPES pH 7.2, 50 mM Li2SO4, 5% glycerol, 1 mM DTT, 5 mM DHT; 1:1 Langmuir model; triplicate
Settings: both partners purified

B1: Synthetic UBA3 peptide S59-V72 (LxxLL motif) (peptide)
peptide: STESLQFLLDTCKV
notes: also called UBA3-derived peptide; UBA3 59S-72V peptide; source: synthetic peptide, custom-synthesized at Pepmic
Kd: 30.6 ± 0.7 nM
